Laboratory results reported in the supplement of paper PMC10567573.

B1: PSD2 (parent)
chain: PLMGETQERERVLTHFSRRYCQCN

Variants of: B1
Assay: protein stability index of a GFP-peptide fusion (GPS, HEK-293T) (PSI 1-6); higher = more stable
Settings: c terminus: a fixed tail appended
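Also: lentivirally expressed fusions sorted by FACS into six bins by GFP to DsRed ratio, PSI derived from sequencing read proportions per bin multiplied by bin number.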

Question: Which protein stability index does the source give for PLMGETQERERVLTHFSRCYCQCN [R19C] here?
Answer: 3.28

Question: Which protein stability index does the source give for PLMGETQERERVLTHFSRGYCQCN [R19G] here?
Answer: 3.71

Question: For PLMGETQERERVLTHFSRVYCQCN [R19V], which protein stability index is on record?
Answer: 3.09

Question: Which protein stability index does the source give for PLMGETQERERVLTHFSRDYCQCN [R19D] here?
Answer: 3.25

Question: With PLMGETQERERVLTHFSRKYCQCN [R19K] as the variant, how does the protein stability index read?
Answer: 3.17

Question: For PLMGETQERERVLTHFSRIYCQCN [R19I], which protein stability index is on record?
Answer: 2.54

Question: For PLMGETQERERVLTHFSRMYCQCN [R19M], which protein stability index is on record?
Answer: 2.22

Question: With PLMGETQERERVLTHFSRAYCQCN [R19A] as the variant, how does the protein stability index read?
Answer: 2.98

Question: Which protein stability index does the source give for PLMGETQERERVLTHFSRRYCQPN [C23P] here?
Answer: 4.09

Question: With PLMGETQERERVLTHFSRRYCQRN [C23R] as the variant, how does the protein stability index read?
Answer: 3.6

Question: For PLMGETQERERVLTHFSRRYCQVN [C23V], which protein stability index is on record?
Answer: 3.56

Question: Which protein stability index does the source give for PLMGETQERERVLTHFSRRYCQGN [C23G] here?
Answer: 3.56

Question: For PLMGETQERERVLTHFSRRYCQKN [C23K], which protein stability index is on record?
Answer: 4.92

Question: For PLMGETQERERVLTHFSRRYCQIN [C23I], which protein stability index is on record?
Answer: 2.99

Question: With PLMGETQERERVLTHFSRRYCQDN [C23D] as the variant, how does the protein stability index read?
Answer: 4.04

Question: Which protein stability index does the source give for PLMGETQERERVLTHFSRRYCQLN [C23L] here?
Answer: 2.9

Question: Which protein stability index does the source give for PLMGETQERERVLTHFSRRYCQMN [C23M] here?
Answer: 2.92

Question: Which protein stability index does the source give for PLMGETQEREPVLTHFSRRYCQCN [R11P] here?
Answer: 3.02

Question: For PLMGETQEREFVLTHFSRRYCQCN [R11F], which protein stability index is on record?
Answer: 1.85

Question: For PLMGETQEREHVLTHFSRRYCQCN [R11H], which protein stability index is on record?
Answer: 3.73

Question: Which protein stability index does the source give for PLMGETQERELVLTHFSRRYCQCN [R11L] here?
Answer: 3.11

Question: Which protein stability index does the source give for PLMGETQEREEVLTHFSRRYCQCN [R11E] here?
Answer: 3.98

Question: Which protein stability index does the source give for PLMGETQERENVLTHFSRRYCQCN [R11N] here?
Answer: 3.14

Question: For PQMGETQERERVLTHFSRRYCQCN [L2Q], which protein stability index is on record?
Answer: 3.35

Question: For PKMGETQERERVLTHFSRRYCQCN [L2K], which protein stability index is on record?
Answer: 2.57

Question: Which protein stability index does the source give for PGMGETQERERVLTHFSRRYCQCN [L2G] here?
Answer: 4.03

Question: With PIMGETQERERVLTHFSRRYCQCN [L2I] as the variant, how does the protein stability index read?
Answer: 3.17

Question: For PPMGETQERERVLTHFSRRYCQCN [L2P], which protein stability index is on record?
Answer: 2.99

Question: With PDMGETQERERVLTHFSRRYCQCN [L2D] as the variant, how does the protein stability index read?
Answer: 3.37

Question: Which protein stability index does the source give for PSMGETQERERVLTHFSRRYCQCN [L2S] here?
Answer: 3.19

Question: For PTMGETQERERVLTHFSRRYCQCN [L2T], which protein stability index is on record?
Answer: 3.01

Question: For PLMGETWERERVLTHFSRRYCQCN [Q7W], which protein stability index is on record?
Answer: 1.44

Question: With PLMGETIERERVLTHFSRRYCQCN [Q7I] as the variant, how does the protein stability index read?
Answer: 1.97

Question: Which protein stability index does the source give for PLMGETMERERVLTHFSRRYCQCN [Q7M] here?
Answer: 2.22

Question: Which protein stability index does the source give for PLMGETPERERVLTHFSRRYCQCN [Q7P] here?
Answer: 2.77

Question: For PLMGETAERERVLTHFSRRYCQCN [Q7A], which protein stability index is on record?
Answer: 3.21

Question: With PLMGETGERERVLTHFSRRYCQCN [Q7G] as the variant, how does the protein stability index read?
Answer: 2.42

Question: For PLMGETFERERVLTHFSRRYCQCN [Q7F], which protein stability index is on record?
Answer: 2.73

Question: Which protein stability index does the source give for PLMGETYERERVLTHFSRRYCQCN [Q7Y] here?
Answer: 2.82

Question: Which protein stability index does the source give for PLMGETQERERVLTHFSRRYCKCN [Q22K] here?
Answer: 3.02

Question: Which protein stability index does the source give for PLMGETQERERVLTHFSRRYCHCN [Q22H] here?
Answer: 2.62

Question: Which protein stability index does the source give for PLMGETQERERVLTHFSRRYCGCN [Q22G] here?
Answer: 2.29

Question: For PLMGETQERERVLTHFSRRYCMCN [Q22M], which protein stability index is on record?
Answer: 2.1

Question: With PLMGETQERERVLTHFSRRYCFCN [Q22F] as the variant, how does the protein stability index read?
Answer: 2.42

Question: With PLMGETQERERVLTHFSRRYCTCN [Q22T] as the variant, how does the protein stability index read?
Answer: 3.08

Question: For PLMGETQERERVLTHFSRRYCWCN [Q22W], which protein stability index is on record?
Answer: 2.49

Question: With PLMGETQERERVLTHFSRRYCCCN [Q22C] as the variant, how does the protein stability index read?
Answer: 2.11

Question: For PLMGETQERERVLTMFSRRYCQCN [H15M], which protein stability index is on record?
Answer: 2.56

Question: Which protein stability index does the source give for PLMGETQERERVLTIFSRRYCQCN [H15I] here?
Answer: 2.32

Question: With PLMGETQERERVLTEFSRRYCQCN [H15E] as the variant, how does the protein stability index read?
Answer: 4.15

Question: Which protein stability index does the source give for PLMGETQERERVLTYFSRRYCQCN [H15Y] here?
Answer: 2.44

Question: With PLMGETQERERVLTRFSRRYCQCN [H15R] as the variant, how does the protein stability index read?
Answer: 2.74

Question: With PLMGETQERERVLTNFSRRYCQCN [H15N] as the variant, how does the protein stability index read?
Answer: 3.02

Question: Which protein stability index does the source give for PLMGETQERERVLTPFSRRYCQCN [H15P] here?
Answer: 2.6

Question: For PLMGETQERERVLTFFSRRYCQCN [H15F], which protein stability index is on record?
Answer: 1.47

Question: With PLMGETQERERVLTQFSRRYCQCN [H15Q] as the variant, how does the protein stability index read?
Answer: 1.99

Question: For PLMGETQERERVLTGFSRRYCQCN [H15G], which protein stability index is on record?
Answer: 3.07

Question: Which protein stability index does the source give for PLDGETQERERVLTHFSRRYCQCN [M3D] here?
Answer: 3.69

Question: Which protein stability index does the source give for PLSGETQERERVLTHFSRRYCQCN [M3S] here?
Answer: 2.97

Question: With PLCGETQERERVLTHFSRRYCQCN [M3C] as the variant, how does the protein stability index read?
Answer: 2.61

Question: Which protein stability index does the source give for PLIGETQERERVLTHFSRRYCQCN [M3I] here?
Answer: 2.37

Question: For PLPGETQERERVLTHFSRRYCQCN [M3P], which protein stability index is on record?
Answer: 2.72

Question: Which protein stability index does the source give for PLGGETQERERVLTHFSRRYCQCN [M3G] here?
Answer: 4

Question: Which protein stability index does the source give for PLRGETQERERVLTHFSRRYCQCN [M3R] here?
Answer: 2.44

Question: Which protein stability index does the source give for PLTGETQERERVLTHFSRRYCQCN [M3T] here?
Answer: 4.68

Question: With PLMGETQERERVLTHFSWRYCQCN [R18W] as the variant, how does the protein stability index read?
Answer: 1.79

Question: For PLMGETQERERVLTHFSDRYCQCN [R18D], which protein stability index is on record?
Answer: 4.01

Question: With PLMGETQERERVLTHFSCRYCQCN [R18C] as the variant, how does the protein stability index read?
Answer: 1.77

Question: Which protein stability index does the source give for PLMGETQERERVLTHFSLRYCQCN [R18L] here?
Answer: 2.24

Question: For PLMGETQERERVLTHFSPRYCQCN [R18P], which protein stability index is on record?
Answer: 3.01

Question: For PLMGETQERERVLTHFSTRYCQCN [R18T], which protein stability index is on record?
Answer: 3.09

Question: For PLMGETQERERVLTHMSRRYCQCN [F16M], which protein stability index is on record?
Answer: 3.09

Question: With PLMGETQERERVLTHHSRRYCQCN [F16H] as the variant, how does the protein stability index read?
Answer: 4.05

Question: Which protein stability index does the source give for PLMGETQERERVLTHKSRRYCQCN [F16K] here?
Answer: 3

Question: Which protein stability index does the source give for PLMGETQERERVLTHPSRRYCQCN [F16P] here?
Answer: 3.9

Question: For PLMGETQERERVLTHASRRYCQCN [F16A], which protein stability index is on record?
Answer: 3.85

Question: For PLMGETQERERVLTHWSRRYCQCN [F16W], which protein stability index is on record?
Answer: 2.1

Question: For PLMGETQERERVLTHLSRRYCQCN [F16L], which protein stability index is on record?
Answer: 3.79

Question: With PLMGETQERERVLTHCSRRYCQCN [F16C] as the variant, how does the protein stability index read?
Answer: 4.41

Question: For PLMGETQERERVLTHFSRRYIQCN [C21I], which protein stability index is on record?
Answer: 3.06

Question: For PLMGETQERERVLTHFSRRYTQCN [C21T], which protein stability index is on record?
Answer: 4.43

Question: For PLMGETQERERVLTHFSRRYMQCN [C21M], which protein stability index is on record?
Answer: 3.61

Question: With PLMGETQERERVLTHFSRRYNQCN [C21N] as the variant, how does the protein stability index read?
Answer: 3.29

Question: For PLMGETQERERVLTHFSRRYDQCN [C21D], which protein stability index is on record?
Answer: 4.01

Question: Which protein stability index does the source give for PLMGETQERERVLTHFSRRYWQCN [C21W] here?
Answer: 3.17

Question: With PLMGETQERERVLTHFSRRYQQCN [C21Q] as the variant, how does the protein stability index read?
Answer: 3.67

Question: Which protein stability index does the source give for PLMGETQERERVLTHFSRRYEQCN [C21E] here?
Answer: 3.81

Question: With PLMGETQERERVLTHFSRRYLQCN [C21L] as the variant, how does the protein stability index read?
Answer: 3.23

Question: With PLMGENQERERVLTHFSRRYCQCN [T6N] as the variant, how does the protein stability index read?
Answer: 2.21

Question: Which protein stability index does the source give for PLMGEHQERERVLTHFSRRYCQCN [T6H] here?
Answer: 3.15

Question: For PLMGEVQERERVLTHFSRRYCQCN [T6V], which protein stability index is on record?
Answer: 2.44

Question: Which protein stability index does the source give for PLMGEQQERERVLTHFSRRYCQCN [T6Q] here?
Answer: 2.97

Question: With PLMGEYQERERVLTHFSRRYCQCN [T6Y] as the variant, how does the protein stability index read?
Answer: 2.33

Question: With PLMGEPQERERVLTHFSRRYCQCN [T6P] as the variant, how does the protein stability index read?
Answer: 3.02
